Results reported in PMC10359460, “Structural basis of the T4 bacteriophage primosome assembly and primer synthesis” (Nature Communications, 2023).

B1: T4 bacteriophage gp41 helicase (enzyme, UniProt P04530 1-475, looked up)
chain: MVEIILSHLIFDQAYFSKVWPYMDSEYFESGPAKNTFKLIKSHVNEYHSVPSINALNVALENSSFTETEYSGVKTLISKLADSPEDHSWLVKETEKYVQQRAMFNATSKIIEIQTNAELPPEKRNKKMPDVGAIPDIMRQALSISFDSYVGHDWMDDYEARWLSYMNKARKVPFKLRILNKITKGGAETGTLNVLMAGVNVGKSLGLCSLAADYLQLGHNVLYISMEMAEEVCAKRIDANMLDVSLDDIDDGHISYAEYKGKMEKWREKSTLGRLIVKQYPTGGADANTFRSLLNELKLKKNFVPTIIIVDYLGICKSCRIRVYSENSYTTVKAIAEELRALAVETETVLWTAAQVGKQAWDSSDVNMSDIAESAGLPATADFMLAVIETEELAAAEQQLIKQIKSRYGDKNKWNKFLMGVQKGNQKWVEIEQDSTPTEVNEVAGSQQIQAEQNRYQRNESTRAQLDALANELKF
notes: gp41 helicase of T4 bacteriophage, wild type; NTD (globular subdomain and helical hairpin), linking helix and RecA-like CTD; Hexamer assembled with ATPγS; also called WT gp41 helicase; T4 helicase
B3: T4 bacteriophage gp41 helicase E227Q (enzyme, UniProt P04530 1-475, looked up)
chain: MVEIILSHLIFDQAYFSKVWPYMDSEYFESGPAKNTFKLIKSHVNEYHSVPSINALNVALENSSFTETEYSGVKTLISKLADSPEDHSWLVKETEKYVQQRAMFNATSKIIEIQTNAELPPEKRNKKMPDVGAIPDIMRQALSISFDSYVGHDWMDDYEARWLSYMNKARKVPFKLRILNKITKGGAETGTLNVLMAGVNVGKSLGLCSLAADYLQLGHNVLYISMQMAEEVCAKRIDANMLDVSLDDIDDGHISYAEYKGKMEKWREKSTLGRLIVKQYPTGGADANTFRSLLNELKLKKNFVPTIIIVDYLGICKSCRIRVYSENSYTTVKAIAEELRALAVETETVLWTAAQVGKQAWDSSDVNMSDIAESAGLPATADFMLAVIETEELAAAEQQLIKQIKSRYGDKNKWNKFLMGVQKGNQKWVEIEQDSTPTEVNEVAGSQQIQAEQNRYQRNESTRAQLDALANELKF
notes: gp41 helicase of T4 bacteriophage with E227Q in the walker-B motif (no ATP hydrolysis); PDB 8DTP is the wild-type parent; also called gp41(E227Q)

Legend:
[1] = biological target: T1, T4 primosome (gp41 helicase-gp61 primase) (Tequatrovirus T4, UniProt P04530); experiment: cryo-EM structure; format: binding; conditions: WT primosome with ssDNA, closed-ring gp41; 5 mM ATPγS, 10 mM MgCl2, pH 7.8; sites on gp41
T1 construct: gene 41; full-length proteins, intein fusions self-cleaved, E. coli BL21(DE3); 6:1 helicase:primase on ssDNA; with DNA primase
T1 sequence (P04530 1-475): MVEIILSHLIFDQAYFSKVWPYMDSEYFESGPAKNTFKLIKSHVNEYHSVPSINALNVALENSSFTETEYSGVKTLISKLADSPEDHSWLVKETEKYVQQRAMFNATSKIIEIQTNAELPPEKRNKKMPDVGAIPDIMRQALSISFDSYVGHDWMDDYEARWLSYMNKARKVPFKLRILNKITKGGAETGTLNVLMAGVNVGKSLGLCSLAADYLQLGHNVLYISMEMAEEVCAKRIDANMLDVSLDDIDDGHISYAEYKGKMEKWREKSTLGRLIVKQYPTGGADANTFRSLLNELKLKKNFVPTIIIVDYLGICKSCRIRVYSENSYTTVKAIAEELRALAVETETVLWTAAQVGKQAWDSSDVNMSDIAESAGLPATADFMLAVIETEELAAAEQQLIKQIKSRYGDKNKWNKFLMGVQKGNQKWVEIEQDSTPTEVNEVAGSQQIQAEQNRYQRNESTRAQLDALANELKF
T1 sequence (P04520 1-342 partner): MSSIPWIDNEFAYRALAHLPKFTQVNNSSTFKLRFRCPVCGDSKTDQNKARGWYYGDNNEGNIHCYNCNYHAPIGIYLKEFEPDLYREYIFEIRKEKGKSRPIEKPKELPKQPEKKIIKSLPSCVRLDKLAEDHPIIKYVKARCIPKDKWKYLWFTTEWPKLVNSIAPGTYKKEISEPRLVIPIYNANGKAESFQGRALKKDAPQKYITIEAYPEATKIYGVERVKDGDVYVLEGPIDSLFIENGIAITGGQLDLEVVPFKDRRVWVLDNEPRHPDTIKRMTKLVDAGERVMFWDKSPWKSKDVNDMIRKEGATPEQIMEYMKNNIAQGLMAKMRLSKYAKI

gp41 helicase [2] = biological target: T2, gp41 helicase (Tequatrovirus T4, UniProt P04530); experiment: cryo-EM structure; format: binding; conditions: five of six nucleotide sites at CTD-CTD interfaces occupied; 5 mM ATPγS, 10 mM MgCl2, pH 7.8; open spiral without ssDNA (8DUO) or with ssDNA (8DUE), closed ring with ssDNA (8DTP)
T2 construct: gene 41; full-length, intein fusion self-cleaved, E. coli BL21(DE3); homohexamer, without or with ssDNA
T2 sequence (P04530 1-475): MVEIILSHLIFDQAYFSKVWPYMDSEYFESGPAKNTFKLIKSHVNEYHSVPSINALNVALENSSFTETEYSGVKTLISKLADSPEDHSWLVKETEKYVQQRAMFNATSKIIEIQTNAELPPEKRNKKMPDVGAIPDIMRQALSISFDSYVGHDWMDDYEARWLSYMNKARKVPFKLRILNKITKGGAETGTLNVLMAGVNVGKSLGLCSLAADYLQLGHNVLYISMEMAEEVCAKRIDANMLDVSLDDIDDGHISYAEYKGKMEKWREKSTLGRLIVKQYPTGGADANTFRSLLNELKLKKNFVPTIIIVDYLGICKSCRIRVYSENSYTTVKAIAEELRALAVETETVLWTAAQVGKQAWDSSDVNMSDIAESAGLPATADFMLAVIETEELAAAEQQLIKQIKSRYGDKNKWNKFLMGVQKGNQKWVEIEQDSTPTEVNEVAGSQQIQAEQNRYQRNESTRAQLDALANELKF

[3] = biological target: the molecule itself; experiment: cryo-EM structure; step 1: 6 uM gp41 helicase with 5 mM ATPγS, no DNA; 20 mM HEPES pH 7.8, 100 mM NaCl, 10 mM MgCl2, 2 mM DTT; 30 min at room temperature
[4] = biological target: B1; experiment: cryo-EM structure; step 3: 6 uM gp41 helicase, 5 mM ATPγS, 12 uM ssDNA/RNA primer substrate and 3 uM gp61 primase; 20 mM HEPES pH 7.8, 100 mM NaCl, 10 mM MgCl2, 2 mM DTT; 30 min at room temperature; conditions: both partners purified
[5] = biological target: B3; experiment: cryo-EM structure; primosome assembled from gp41 E227Q helicase, WT gp61 primase and the ssDNA/RNA primer substrate; helicase and primase regions refined separately; conditions: both partners purified
[6] = biological target: the molecule itself; experiment: as above
gp41 helicase [7] = biological target: T3, gp41 helicase (Escherichia phage T4 (T4 bacteriophage), UniProt P04530 1-475); experiment: cryo-EM; ATPgS; open spiral, 10 nt ssDNA held; RNA primer not resolved; Cryo-EM with ATPgS (stated for gp41 and WT primosome); assembly buffer and temperature not in the material; cryo-EM proteins purified in HEPES pH 7.8 buffers; conditions: protein: recombinant; tags: none (intein tag self-cleaved); chain copies: 6; 70-nt DNA (strand 1) annealed to 5-nt RNA (strand 2) at internal TCGGC; single-stranded DNA on both sides
T3 sequence: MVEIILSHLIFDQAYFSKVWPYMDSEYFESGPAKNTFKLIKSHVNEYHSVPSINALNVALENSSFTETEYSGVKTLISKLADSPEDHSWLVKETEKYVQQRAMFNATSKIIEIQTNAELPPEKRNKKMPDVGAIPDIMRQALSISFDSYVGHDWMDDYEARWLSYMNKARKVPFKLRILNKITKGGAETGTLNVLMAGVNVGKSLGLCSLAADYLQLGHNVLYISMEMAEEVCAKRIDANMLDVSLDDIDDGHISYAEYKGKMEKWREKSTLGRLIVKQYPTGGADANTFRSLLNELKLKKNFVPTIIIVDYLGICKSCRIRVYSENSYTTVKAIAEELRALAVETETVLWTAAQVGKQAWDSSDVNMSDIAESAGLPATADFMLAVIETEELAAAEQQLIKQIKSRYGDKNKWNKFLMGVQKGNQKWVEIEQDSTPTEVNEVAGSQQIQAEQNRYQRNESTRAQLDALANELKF

[8] = biological target: T4, gp41(E227Q) helicase;gp61 primase (Escherichia phage T4 (T4 …, UniProt P04530;P04520 1-475;1-342, E227Q|)); experiment: cryo-EM; mutant primosome, post primer synthesis; composite map, RNA/DNA hybrid seen; Cryo-EM with ATPgS (stated for gp41 and WT primosome); assembly buffer and temperature not in the material; cryo-EM proteins purified in HEPES pH 7.8 buffers; conditions: protein: recombinant;recombinant; tags: none (intein tag self-cleaved);none (intein tag self-cleaved); chain copies: 6;1; 70-nt DNA (strand 1) annealed to 5-nt RNA (strand 2) at internal TCGGC; single-stranded DNA on both sides
T4 sequence 1: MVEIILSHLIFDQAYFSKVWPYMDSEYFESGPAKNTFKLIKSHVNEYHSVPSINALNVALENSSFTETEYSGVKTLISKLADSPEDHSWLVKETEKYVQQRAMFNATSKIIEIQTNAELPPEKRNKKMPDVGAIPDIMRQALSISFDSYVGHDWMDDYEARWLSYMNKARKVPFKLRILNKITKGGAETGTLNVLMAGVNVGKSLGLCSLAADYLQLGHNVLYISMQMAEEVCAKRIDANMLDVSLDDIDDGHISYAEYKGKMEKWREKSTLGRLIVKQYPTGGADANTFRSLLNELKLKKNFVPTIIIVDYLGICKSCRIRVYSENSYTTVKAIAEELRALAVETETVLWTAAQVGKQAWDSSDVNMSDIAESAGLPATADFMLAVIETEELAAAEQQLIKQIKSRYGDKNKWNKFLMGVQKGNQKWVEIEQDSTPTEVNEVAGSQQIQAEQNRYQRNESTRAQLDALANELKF
T4 sequence 2: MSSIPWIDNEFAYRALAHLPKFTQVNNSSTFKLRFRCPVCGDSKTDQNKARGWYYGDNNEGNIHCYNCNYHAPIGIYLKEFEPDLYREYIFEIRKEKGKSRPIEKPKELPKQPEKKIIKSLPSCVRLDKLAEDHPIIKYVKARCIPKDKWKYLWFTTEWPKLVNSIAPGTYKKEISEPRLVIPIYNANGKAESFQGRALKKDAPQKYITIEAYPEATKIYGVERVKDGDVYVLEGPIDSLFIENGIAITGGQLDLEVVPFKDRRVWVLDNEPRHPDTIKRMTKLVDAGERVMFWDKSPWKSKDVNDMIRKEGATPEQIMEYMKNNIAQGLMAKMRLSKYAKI

[9] = biological target: T5, gp41 helicase;gp61 primase (Escherichia phage T4 (T4 …, UniProt P04530;P04520 1-475;1-342, |)); experiment: cryo-EM; ATPgS; WT primosome pose 1; ssDNA seen, no RNA primer density; Cryo-EM with ATPgS (stated for gp41 and WT primosome); assembly buffer and temperature not in the material; cryo-EM proteins purified in HEPES pH 7.8 buffers; conditions: protein: recombinant;recombinant; tags: none (intein tag self-cleaved);none (intein tag self-cleaved); chain copies: 6;1; 70-nt DNA (strand 1) annealed to 5-nt RNA (strand 2) at internal TCGGC; single-stranded DNA on both sides
T5 sequence 1: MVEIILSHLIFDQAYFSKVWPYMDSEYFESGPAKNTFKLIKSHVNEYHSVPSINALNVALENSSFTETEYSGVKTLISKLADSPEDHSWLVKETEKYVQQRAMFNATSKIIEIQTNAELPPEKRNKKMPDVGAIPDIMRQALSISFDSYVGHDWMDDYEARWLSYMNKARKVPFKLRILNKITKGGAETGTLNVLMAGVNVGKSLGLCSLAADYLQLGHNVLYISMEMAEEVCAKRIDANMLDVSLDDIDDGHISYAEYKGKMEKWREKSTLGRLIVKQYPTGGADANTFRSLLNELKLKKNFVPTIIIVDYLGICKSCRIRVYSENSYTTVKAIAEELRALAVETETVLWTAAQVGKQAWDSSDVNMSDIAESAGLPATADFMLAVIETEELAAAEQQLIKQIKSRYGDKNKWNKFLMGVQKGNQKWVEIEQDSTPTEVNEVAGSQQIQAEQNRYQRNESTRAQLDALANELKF
T5 sequence 2: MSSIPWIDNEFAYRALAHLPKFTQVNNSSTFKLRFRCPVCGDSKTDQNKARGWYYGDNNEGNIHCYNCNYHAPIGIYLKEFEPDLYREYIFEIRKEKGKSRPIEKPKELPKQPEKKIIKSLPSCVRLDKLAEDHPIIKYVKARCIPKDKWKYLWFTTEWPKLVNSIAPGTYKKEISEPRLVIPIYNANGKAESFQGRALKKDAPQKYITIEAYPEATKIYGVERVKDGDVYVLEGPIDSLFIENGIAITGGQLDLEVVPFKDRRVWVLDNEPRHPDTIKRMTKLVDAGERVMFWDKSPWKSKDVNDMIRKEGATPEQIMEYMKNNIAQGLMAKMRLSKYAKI

Molecule: Nc1ncnc2c1ncn2[C@@H]1O[C@H](COP(=O)(O)OP(=O)(O)OP(O)(O)=S)[C@@H](O)[C@H]1O [ATPγS]
- cryo-EM structure [1]: observed in the T4 primosome in the presence of ssDNA and ATPγS
- cryo-EM structure (gp41 helicase [2]): five nucleotide binding pockets at the subunit interfaces occupied with ATPγS molecules

Molecule: B1
- stoichiometry N [3]: 6 subunits

B2: T4 bacteriophage gp61 primase (enzyme, UniProt P04520 1-342, looked up)
chain: MSSIPWIDNEFAYRALAHLPKFTQVNNSSTFKLRFRCPVCGDSKTDQNKARGWYYGDNNEGNIHCYNCNYHAPIGIYLKEFEPDLYREYIFEIRKEKGKSRPIEKPKELPKQPEKKIIKSLPSCVRLDKLAEDHPIIKYVKARCIPKDKWKYLWFTTEWPKLVNSIAPGTYKKEISEPRLVIPIYNANGKAESFQGRALKKDAPQKYITIEAYPEATKIYGVERVKDGDVYVLEGPIDSLFIENGIAITGGQLDLEVVPFKDRRVWVLDNEPRHPDTIKRMTKLVDAGERVMFWDKSPWKSKDVNDMIRKEGATPEQIMEYMKNNIAQGLMAKMRLSKYAKI
notes: gp61 primase of T4 bacteriophage, wild type; N-terminal ZBD and C-terminal RPD joined by a linker loop (Lys97 to Lys115); the models hold a resolved full-length primase; also called WT gp61 primase; T4 primase
- stoichiometry N [4]: 1 gp61 primase per gp41 helicase hexamer
- binding result [5]: binds

Molecule: B3
- binding result [6]: binds

B4: ssDNA template/pentaribonucleotide primer (DNA:RNA)
DNA: GAATGAGGAGTAGTAGTGAATGTAGTGAGGTAATATCGGCTGGTCTGGTCTGTGCCAAGTTGCTGCAAAA
?: GCCGA
modifications: RNA primer 5'-triphosphate
- binding result (gp41 helicase [7]): binds
- binding result [8]: binds
- binding result [9]: binds
